According to patent publication US11807881B2, “Polypeptide, fusion polypeptide, and antibiotic against gram-negative bacteria comprising same” (priority 2020, dated 2023):

Assays:
Assay type in all cases: cell-based
[1] = system: gram negative bacterium (Pseudomonas aeruginosa (PA01; ATCC 15692) and Acinetobacter baumannii (ATCC 19606)); assay: NPN uptake assay (outer membrane permeabilization)
Procedure: In order to evaluate the outer membrane permeabilization activity of the gram negative bacterium of the fusion polypeptide prepared in the Example 3.2, NPN uptake assay was performed. As representative gram negative bacterium, Pseudomonas aeruginosa and Acinetobacter baumannii were used for the test.
Pseudomonas aeruginosa (PA01; ATCC 15692) or Acinetobacter baumannii (ATCC 19606) was cultured by OD600=0.3 and centrifuged at 1,000 g for 10 minutes, and then it was resuspended with a ½ volume of 5 mM HEPES (Hydroxyethyl piperazine Ethane Sulfonic acid) (pH 7.2). 40 μM NPN (1-N-phenylnaphthylamine) solution (40 μM NPN in 5 mM HEPES, pH7.2) 50 μl, the test substance (LNT101, LNT102 or LNT103) 50 μl, and strain suspension solution 100 μl (total 200 μl) were added to a microplate and reacted at 37° C. for 1 hour. Then, fluorescence was measured under the condition of excitation 350 nm and emission 420 nm with a microplate reader (Infinite M200 Pro, TECAN). As a positive control group, Cecropin A (SEQ ID NO: 8), EDTA, or polymyxin B was used, and as a negative control group, 10 μM NPN solution was used. All the experiments were performed in 3 sets. […]

[2] = system: E. coli; assay: MIC and MBC, broth microdilution in CAA media
Procedure: (§1) In addition, MIC (Minimal Inhibitory Concentration) and MBC (Minimal Bactericidal Concentration) of the fusion polypeptide LNT103 were measured. […] Specifically, the LNT103 was treated at a concentration of 64 μg/ml to a 96 well microplate row A, and the LNT103 was treated at a concentration where serial dilution was performed by ½ in rows B-G. To the row H, LNT103 was not treated. After that, the corresponding bacterium strain (type or QC, CCARM and clinical separation strain; See Tables 2-4) was treated in an amount of 5×10^5 CFU/ml, total 100 μl in all wells. Then, it was cultured at 37° C. for 18 hours. MIC was determined to be the lowest concentration at which no colonies were identified by confirming the number of the colonies in each well.

[3] = system: P. aeruginosa; assay: MIC and MBC, broth microdilution in CAA media
Procedure: as §1

B1: LNT103: fusion polypeptide [Cecropin A]-[linker (GSGSGS)]-[endolysin LNT102]; SEQ ID NO: 15 (MAS, His tag) used in the tests (protein)
chain: MASKWKLFKKIEKVGQNIRDGIIKAGPAVAVVGQATQIAKGSGSGSMGTVLKRGDRGSAVEDLQMKLNVAGYNLSADGIFGGDTEKAVRDVQAGAGLVVDGKVGPKTLYAIAKSATVPAKWEAIPFPTANKSRSAAMPTLNAVGAMTGVDSRLLATFASIESAFDYTVKAKTSSATGWFQFLDATWDDMIKAYGSKYGIPKDPTRALRKDPRANALMGAEFIKGNAAVLRPVINREPSDTDLYLAHFLGAGGAKKFLSADQKTLGEVLFPKPAKANPSIFSNKGVPRTLAEIYKLFEDKVSKHRALEHHHHHH
modifications: synthetic_Fusion Polypeptide LNT103 with MAS, His tag, and extra sequence
In the case of B1, the “outer membrane permeabilization activity (NPN uptake, fold change over control)” value ([1]; 2 μM, 37° C. 1 hour, compared with LNT101, LNT102, cecropin A 2 μM, polymyxin B 2 μM, EDTA 1 mM) is reported as “higher outer membrane permeabilization activity against gram negative bacterium than the polypeptides LNT101 and LNT102 at the same concentration”, the “outer membrane permeabilization activity (NPN uptake, fold change over negative control)” value ([1]; LNT103 0.29 μM, 0.88 μM, 2.65 μM) is reported as “increased in a concentration-dependent manner” and the MBC ([2]; E. coli ATCC 8739) is reported as 8 µg/mL. For the same molecule, the MIC ([2]; E. coli ATCC 8739) was 8 µg/mL, the MBC ([2]; E. coli CCARM 1A746) was 8 µg/mL and the MIC ([2]; E. coli CCARM 1A746) was 8 µg/mL. For the same molecule, the MBC ([2]; E. coli CCARM 1B684) was 8 µg/mL, the MIC ([2]; E. coli CCARM 1B684) was 4 µg/mL and the MBC ([2]; E. coli CCARM 1G448) was 4 µg/mL. For the same molecule, the MIC ([2]; E. coli CCARM 1G448) was 4 µg/mL, the MBC ([2]; E. coli CCARM 1460) was 4 µg/mL and the MIC ([2]; E. coli CCARM 1460) was 4 µg/mL. It also gave an MBC ([2]; E. coli F340) of 16 µg/mL, an MIC ([2]; E. coli F340) of 16 µg/mL and an MBC ([2]; E. coli F481) of 8 µg/mL. For the same molecule, the MIC ([2]; E. coli F481) was 8 µg/mL, the MBC ([2]; E. coli F485) was 8 µg/mL and the MIC ([2]; E. coli F485) was 4 µg/mL. The MBC ([2]; E. coli F524) was 16 µg/mL, the MIC ([2]; E. coli F524) was 16 µg/mL and the MBC ([2]; E. coli F716) was 32 µg/mL. It also gave an MIC ([2]; E. coli F716) of 16 µg/mL, an MBC ([2]; E. coli F852) of 32 µg/mL and an MIC ([2]; E. coli F852) of 16 µg/mL. It also gave an MBC ([2]; E. coli F859) of 32 µg/mL, an MIC ([2]; E. coli F859) of 32 µg/mL and an MBC ([2]; E. coli F862) of 4 µg/mL. It also gave an MIC ([2]; E. coli F862) of 4 µg/mL, an MBC ([2]; E. coli FORC81) of 4 µg/mL and an MIC ([2]; E. coli FORC81) of 4 µg/mL. The MBC ([2]; E. coli UPEC 3042) was 32 µg/mL, the MIC ([2]; E. coli UPEC 3042) was 32 µg/mL and the MBC ([2]; E. coli UPEC 3181) was 8 µg/mL. It also gave an MIC ([2]; E. coli UPEC 3181) of 8 µg/mL, an MBC ([3]; P. aeruginosa ATCC 9027) of 16 µg/mL and an MIC ([3]; P. aeruginosa ATCC 9027) of 16 µg/mL. It also gave an MBC ([3]; P. aeruginosa ATCC 10145) of 32 µg/mL, an MIC ([3]; P. aeruginosa ATCC 10145) of 16 µg/mL and an MBC ([3]; P. aeruginosa ATCC 15522) of 16 µg/mL. It also gave an MIC ([3]; P. aeruginosa ATCC 15522) of 16 µg/mL, an MBC ([3]; P. aeruginosa ATCT 13388) of 16 µg/mL and an MIC ([3]; P. aeruginosa ATCT 13388) of 8 µg/mL. It also gave an MBC ([3]; P. aeruginosa CCARM 2134) of 16 µg/mL, an MIC ([3]; P. aeruginosa CCARM 2134) of 8 µg/mL and an MBC ([3]; P. aeruginosa CCARM 2144) of 32 µg/mL. The MIC ([3]; P. aeruginosa CCARM 2144) was 32 µg/mL, the MBC ([3]; P. aeruginosa F102) was 8 µg/mL and the MIC ([3]; P. aeruginosa F102) was 8 µg/mL. The MBC ([3]; P. aeruginosa F141) was 8 µg/mL, the MIC ([3]; P. aeruginosa F141) was 8 µg/mL and the MBC ([3]; P. aeruginosa F265) was 16 µg/mL. The MIC ([3]; P. aeruginosa F265) was 16 µg/mL, the MBC ([3]; P. aeruginosa F341) was 8 µg/mL and the MIC ([3]; P. aeruginosa F341) was 8 µg/mL. It also gave an MBC ([3]; P. aeruginosa F388) of 8 µg/mL, an MIC ([3]; P. aeruginosa F388) of 8 µg/mL and an MBC ([3]; P. aeruginosa PAO1(ATCC 15692)) of 16 µg/mL. It also gave an MIC ([3]; P. aeruginosa PAO1(ATCC 15692)) of 8 µg/mL.
